In patent US9809653B2, “Anti-LAMP1 antibodies and antibody drug conjugates, and uses thereof” (SANOFI, priority 2012, dated 2017):

Key:
Assay type in all cases: binding
[1] = biological target: T1, Alascan LAMP1 transmembrane proteins (hLAMP1_ΔGYQTI mutants) (Homo sapiens, UniProt P11279, R186A); assay: Ala scan of LAMP1 transmembrane proteins, flow cytometry; details: pXL6081, R186A in hLAMP1_ΔGYQTI; loss = decrease of more than 50% of the mean fluorescence
T1 construct: expressed in transfected cells; host or cells: HEK293 (293-F), transient transfection
T1 sequence (P11279 with tags, fused parts or gaps R186A): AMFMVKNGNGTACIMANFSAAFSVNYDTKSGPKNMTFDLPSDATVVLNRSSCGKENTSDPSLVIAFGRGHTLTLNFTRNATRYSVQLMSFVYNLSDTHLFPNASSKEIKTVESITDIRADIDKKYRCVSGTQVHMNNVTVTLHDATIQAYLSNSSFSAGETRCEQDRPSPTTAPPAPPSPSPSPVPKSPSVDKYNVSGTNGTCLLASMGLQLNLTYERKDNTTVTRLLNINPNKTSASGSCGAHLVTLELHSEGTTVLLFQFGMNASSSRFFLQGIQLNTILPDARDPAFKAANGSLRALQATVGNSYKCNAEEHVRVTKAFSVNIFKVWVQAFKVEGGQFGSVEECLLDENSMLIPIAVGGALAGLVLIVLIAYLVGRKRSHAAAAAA
Source text: (§1) Individual residues identified in example 6.5 and not involved in β-strand structure have been individually replaced by an alanine residue in the LAMP1 sequence derived from hLAMP1_ΔGYQTI and encoded in plasmid pXL5626 (example 6.4). A total of 21 plasmids were engineered from pXL5626 (see Table 19) and used to assay LAMP1 expression at the cell membrane of HEK293 cells after transient transfection. Two days post transfection cells were processed, analyzed by flow cytometry (Guava® easyCyte™ 8HT) as mentioned in example 4.7, and the mean fluorescence was recorded. This fluorescence represents a semi-quantitative assessment of binding. Loss of binding is reported on Table 19 when there is a decrease of more than 50% of the mean fluorescence compared to the control protein encoded from pXL5626.

[2] = biological target: T2, Alascan LAMP1 transmembrane proteins (hLAMP1_ΔGYQTI mutants) (Homo sapiens, UniProt P11279, I149A); assay: as above; details: pXL6070, I149A in hLAMP1_ΔGYQTI; loss = decrease of more than 50% of the mean fluorescence
T2 construct: expressed in transfected cells; host or cells: HEK293 (293-F), transient transfection
T2 sequence (P11279 with tags, fused parts or gaps I149A): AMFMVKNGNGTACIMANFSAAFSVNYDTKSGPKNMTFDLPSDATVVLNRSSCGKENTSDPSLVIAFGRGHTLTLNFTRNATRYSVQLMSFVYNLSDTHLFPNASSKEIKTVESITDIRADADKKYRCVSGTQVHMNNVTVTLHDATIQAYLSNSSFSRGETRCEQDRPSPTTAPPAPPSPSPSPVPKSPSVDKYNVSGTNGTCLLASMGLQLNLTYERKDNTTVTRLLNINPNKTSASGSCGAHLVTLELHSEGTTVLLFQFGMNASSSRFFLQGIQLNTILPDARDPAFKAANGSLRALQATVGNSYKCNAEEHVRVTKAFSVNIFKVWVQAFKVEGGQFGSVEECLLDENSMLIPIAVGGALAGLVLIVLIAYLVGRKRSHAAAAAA
Source text: as §1

[3] = biological target: T3, Alascan LAMP1 transmembrane proteins (hLAMP1_ΔGYQTI mutants) (Homo sapiens, UniProt P11279, D150A); assay: as above; details: pXL6085, D150A in hLAMP1_ΔGYQTI; loss = decrease of more than 50% of the mean fluorescence
T3 construct: expressed in transfected cells; host or cells: HEK293 (293-F), transient transfection
T3 sequence (P11279 with tags, fused parts or gaps D150A): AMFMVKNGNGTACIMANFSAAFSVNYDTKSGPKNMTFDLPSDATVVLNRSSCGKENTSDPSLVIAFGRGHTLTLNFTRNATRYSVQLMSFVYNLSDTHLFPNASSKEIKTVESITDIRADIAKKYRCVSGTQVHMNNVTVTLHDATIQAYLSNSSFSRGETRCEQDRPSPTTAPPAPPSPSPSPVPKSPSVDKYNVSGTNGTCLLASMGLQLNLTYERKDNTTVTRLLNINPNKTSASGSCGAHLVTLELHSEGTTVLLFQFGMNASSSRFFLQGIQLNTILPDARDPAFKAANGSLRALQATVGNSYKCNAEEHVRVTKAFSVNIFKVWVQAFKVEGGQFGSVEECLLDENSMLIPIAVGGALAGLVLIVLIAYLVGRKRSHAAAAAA
Source text: as §1

[4] = biological target: T4, human LAMP1 expressed transiently at the cell surface of HEK293 (Homo sapiens, UniProt P11279); assay: FACS on HEK293 cells transiently transfected with human LAMP1; details: transient HEK293
T4 construct: expressed in transfected cells; host or cells: HEK293 (Invitrogen K9000-10), transient transfection
T4 sequence (P11279 29-417): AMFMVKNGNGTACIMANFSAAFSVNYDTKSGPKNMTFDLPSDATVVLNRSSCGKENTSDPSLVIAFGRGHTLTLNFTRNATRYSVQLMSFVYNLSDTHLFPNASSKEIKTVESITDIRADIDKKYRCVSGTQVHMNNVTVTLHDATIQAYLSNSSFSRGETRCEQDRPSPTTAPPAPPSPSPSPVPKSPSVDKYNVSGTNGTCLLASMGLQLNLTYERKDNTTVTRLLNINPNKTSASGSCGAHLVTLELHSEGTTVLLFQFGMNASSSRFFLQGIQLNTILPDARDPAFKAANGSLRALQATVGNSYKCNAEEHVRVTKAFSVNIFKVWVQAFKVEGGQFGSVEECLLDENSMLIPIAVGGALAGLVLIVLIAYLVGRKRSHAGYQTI
Source text: LAMP1 Coding DNA Sequence, RefSeq NM_005561.3 (SEQ ID NO: 23) was cloned internally. The CDS of Macaca mulatta LAMP1, RefSeq XP_001087801 (SEQ ID NO: 27) was also cloned internally. The predicted sequences of mature LAMP1 from Macaca mulatta and Macaca fascicularis are identical to 99%, said sequence differing by one additional Leucin at position 11 of Macaca mulatta (SEQ ID NO: 27), i.e. in the signal peptide. The mature LAMP1 proteins of Macaca mulatta and Macaca fascicularis are identical. Therefore the secreted LAMP1 used in the following example is referred to cynomolgus monkey. Both CDS were cloned into mammalian expression plasmids under CMV enhancer/promoter and SV40 polyA signals. HEK293 cells (Invitrogen; #K9000-10.) were transiently transfected with human LAMP1 or cynomolgus LAMP1 plasmids using FreeStyle™ MAX 293 Expression System according to the manufacturer's instructions. […] 100 μL/well of goat anti-mouse IgG conjugated with Alexa647 (Invitrogen; #A2135) was added for 45 min at 4° C. and washed three times with PBS 1% BSA. The antibody binding was evaluated after centrifugation and resuspension of cells by adding 200 μl/well PBS 1% BSA and read using Guava® easyCyte™ 8HT Flow Cytometry System. EC50 values were estimated using BIOST@T-SPEED software.

Binding to mAb, Alascan [1]: Binding loss | Binding to mAb, Alascan [2]: Binding loss | Binding to mAb, Alascan [3]: Binding loss | EC50 [4]: 14 nM
B1: MAb1: murine monoclonal anti-LAMP1 antibody, VH SEQ ID NO: 1, VL SEQ ID NO: 5 (antibody, V domains shown)
VH: QVQLQQSGAELVKPGASVKMSCKASGYIFTNYNIHWVKKSPGQGLEWIGAIYPGNGDAPYSQKFKDKATLTADKSSSTTYMQLSRLTSEDSAVYYCVRANWDVAFAYWGQGTLVSVSA
VL: DIQMTQSPPSLSASLGGKVTITCKASQDIDRYMAWYQDKPGKGPRLLIHDTSTLQPGIPSRFSGSGSGRDYSFSISNLEPEDIATYYCLQYDNLWTFGGGTKLEIK
modifications: Antibody Fragment; antibody fragment
